{"source": "patent US20250043290A1", "about": "“RNA SEQUENCES THAT INDUCE FLUORESCENCE OF SMALL MOLECULE FLUOROPHORES, MOLECULAR COMPLEXES, SENSORS, AND METHODS OF USE THEREOF” (CORNELL UNIVERSITY, priority 2021, published 2025)", "molecules": {"B1": {"name": "Squash: fluorogenic RNA aptamer evolved from the add A-riboswitch aptamer, binds DFHBI-1T and DFHO; SEQ ID NO: 12 (SEQ ID NO: 1) (nucleic acid)", "chain": "AGGUGAGCCCAAUAAUACGGUUUGGGUUAGGAUAGGAAGUAGAGCCGUAAACUCUCUAAGCG", "modifications": "RNA, backbone not given here"}}, "key": {"[1]": {"assay": "Dissociation constant of RNA-fluorophore complex, titration with DFHBI-1T", "format": "binding", "conditions": "50 nM RNA, one-site saturation model", "procedure": "FIGS. 7A-7H provide photophysical and biophysical characterization of Squash. […] Excess RNA was used to ensure binding of nearly all fluorophore. […] Data represent mean values±s.d. for n=3 independent experiments. […] The fluorescence signal trace was fitted with a monoexponential curve to extract kobs. kobs was plotted as a function of total RNA (50 nM RNA) and fluorophore concentration. kon and koff were extracted as the slope and intercept, respectively. Squash koff (0.014±0.008 s^−1) is very similar to that of Corn (0.018±0.002 s^−1). kon for Squash-DFHO (162300±8100 M^−1 s^−1) is seven-times higher than Corn-DFHO (23000±3000 M^−1 s^−1) which could be due to the high folding of Squash. […]\nDissociation constants (Kd) for the RNA-fluorophore complexes were determined as described previously (Paige et al., “RNA Mimics of Green Fluorescent Protein,” Science 333:642-646 (2011) and Filonov et al., “Broccoli: Rapid Selection of an RNA Mimic of Green Fluorescent Protein by Fluorescence-Based Selection and Directed Evolution,” J. Am. Chem. Soc. 136: 16299-16308 (2014), which are hereby incorporated by reference in their entirety). In brief, the RNA aptamer at a fixed concentration (50 nM) was titrated with increasing fluorophore concentration and the resulting increase in fluorescence was recorded. […]"}, "[2]": {"assay": "Dissociation constant of RNA-fluorophore complex, titration with DFHO", "format": "binding", "conditions": "50 nM RNA, one-site saturation model", "text": "FIG. 2A is a schematic showing the secondary structure of Squash as predicted by mFOLD (Squash: 5′-GGCUACAAGGUGAGCCCAAUAAUACGGUUUGGGUUAGGAUAGGAAGUAGAGCCGUAAACUCUCUAAGCGGUAGUC-3′ (SEQ ID NO:1)). Squash retained the main structural elements of add A-riboswitch aptamer including a 3-way junction and predicted kissing loop interactions (residues at positions 30, 31, 56, and 57, solid gray line). An additional base pair in the kissing loop between loop L2 and L3 (residues at positions 29 and 58, dotted gray line) improved fluorescence activation. […] Shown are the excitation (Ex) and emission (Em) spectra of Squash bound to DFHBI-1T and DFHO (structures shown in inset). Spectra were measured using 20 μM RNA and 2 μM of the indicated fluorogenic dye. […] Fluorescence activation was measured by incubating 200 nM dye and 10 μM RNA. By using a large excess of RNA compared to the fluorophore, it was ensured that the fluorescence observed is from 200 nM RNA-fluorophore complex. Data represent mean values±s.d. for n=3 independent experiments. The values inside the bars indicate fold activation. AU, arbitrary units. […] FIG. 2E is a bar graph showing the results of an experiment in which Squash-DFHO fluorescence was measured in buffers containing exclusively the indicated cations. […]"}, "[3]": {"assay": "Photophysical properties of fluorophores and RNA-fluorophore complexes (Squash study)", "format": "physicochemical", "in_short": "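Gel-purified RNAs in 40 mM HEPES-KOH pH 7.4, 100 mM KCl, 0.5 mM MgCl2, with RNA in excess over fluorophore for absorption, excitation and emission spectra. Quantum yields used 10 μM RNA and 0.2 μM fluorophore, from integrated emission versus Broccoli-DFHBI-1T or Corn-DFHO.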"}, "[4]": {"assay": "Potassium-dependence assay", "format": "physicochemical", "conditions": "buffers with K+, Na+ or Li+", "procedure": "For potassium-dependence assay, separate buffers were prepared for K^+, Na^+ and Li^+. HEPES solution was neutralized with KOH, NaOH or LiOH to generate a 1 M solution (pH 7.4). RNA (1 μM final) was diluted in a buffer containing 40 mM HEPES (pH 7.4) and 0.5 mM MgCl2. Then the salts (KCl, NaCl or LiCl) were added to a final concentration of 100 mM to the corresponding solutions. Finally, DFHBI-1T or DFHO was added to the RNA solution at a final concentration of 10 μM and incubated for 20 minutes. The fluorescence was measured on a FluoroMax-4 fluorimeter."}}, "note": "“Also recorded” adds a separate entry of the source."}
{"molecule": "B1", "values": [{"measurement": "Kd", "setting": "[1]", "value": 45, "unit": "nM"}, {"measurement": "Kd", "setting": "[2]", "value": 54, "unit": "nM"}, {"measurement": "Quantum yield with DFHBI-1T", "setting": "[3]", "value": 0.71}, {"measurement": "Quantum yield with DFHO", "setting": "[3]", "value": 0.60}, {"measurement": "Emission maxima with DFHO", "setting": "[3]; 10 μM RNA, 1 μM DFHO", "value": 562, "unit": "nm"}, {"measurement": "Abs max in complex with DFHBI-1T", "setting": "[3]; 50 μM RNA, 5 μM DFHBI-1T", "value": 450, "unit": "nm"}, {"measurement": "Fluorescence dependence on K+", "setting": "[4]", "value": "fluorescent in K^+-free buffers; also recorded: not dependent on potassium"}]}
